B1: CD33 BRIDGE variant B4 (Fab)
light: GHNYTTRNILPGLNITSTFHKTSGSGKEPKSSDKTHTDIQMTQSPSSLSASVGDRVTITCRASESVDNYGISFMNWFQQKPGKAPKLLIYAASNQGSGVPSRFSGSGSGTDFTLTISSLQPDDFATYYCQQSKEVPWTFGQGTKVEIKRTVAAPSVFIFPPSDEQLKSGTASVVCLLNNFYPREAKVQWKVDNALQSGNSQESVTEQDSKDSTYSLSSTLTLSKADYEKHKVYACEVTHQGLSSPVTKSFNRGECHHHHHH
heavy: QVQLVQSGAEVKKPGSSVKVSCKASGYTFTDYNMHWVRQAPGQGLEWIGYIYPYNGGTGYNQKFKSKATITADESTNTAYMELSSLRSEDTAVYYCARGRPAMDYWGQGTLVTVSSASTKGPSVFPLAPSSKSTSGGTAALGCLVKDYFPEPVTVSWNSGALTSGVHTFPAVLQSSGLYSLSSVVTVPSSSLGTQTYICNVNHKPSNTKVDKKVEPKSCHHHHHH
notes: Lintuzumab-based Fab bridging molecule
B2: CD33 BRIDGE variant B12 (Fab)
light: GHNYTTRNILPGLNITSTFHKTSGSGKGGGGSEPKSSDKTHTGSDIQMTQSPSSLSASVGDRVTITCRASESVDNYGISFMNWFQQKPGKAPKLLIYAASNQGSGVPSRFSGSGSGTDFTLTISSLQPDDFATYYCQQSKEVPWTFGQGTKVEIKRTVAAPSVFIFPPSDEQLKSGTASVVCLLNNFYPREAKVQWKVDNALQSGNSQESVTEQDSKDSTYSLSSTLTLSKADYEKHKVYACEVTHQGLSSPVTKSFNRGECHHHHHH
heavy: B1 heavy
notes: as for B1
B3: CD33 BRIDGE variant B6 (Fab)
light: GHNYTTRNILPGLNITSTFHKTSGSGKGGGSEPKSSDKTHTDIQMTQSPSSLSASVGDRVTITCRASESVDNYGISFMNWFQQKPGKAPKLLIYAASNQGSGVPSRFSGSGSGTDFTLTISSLQPDDFATYYCQQSKEVPWTFGQGTKVEIKRTVAAPSVFIFPPSDEQLKSGTASVVCLLNNFYPREAKVQWKVDNALQSGNSQESVTEQDSKDSTYSLSSTLTLSKADYEKHKVYACEVTHQGLSSPVTKSFNRGECHHHHHH
heavy: B1 heavy
notes: as for B1
B4: CD33 BRIDGE variant B5 (Fab)
light: GHNYTTRNILPGLNITSTFHKTSGSGKGSEPKSSDKTHTDIQMTQSPSSLSASVGDRVTITCRASESVDNYGISFMNWFQQKPGKAPKLLIYAASNQGSGVPSRFSGSGSGTDFTLTISSLQPDDFATYYCQQSKEVPWTFGQGTKVEIKRTVAAPSVFIFPPSDEQLKSGTASVVCLLNNFYPREAKVQWKVDNALQSGNSQESVTEQDSKDSTYSLSSTLTLSKADYEKHKVYACEVTHQGLSSPVTKSFNRGECHHHHHH
heavy: B1 heavy
notes: as for B1
B5: CD33 BRIDGE variant B10 (Fab)
light: GHNYTTRNILPGLNITSTFHKTSGSGKEPKSSDKTHTGSDIQMTQSPSSLSASVGDRVTITCRASESVDNYGISFMNWFQQKPGKAPKLLIYAASNQGSGVPSRFSGSGSGTDFTLTISSLQPDDFATYYCQQSKEVPWTFGQGTKVEIKRTVAAPSVFIFPPSDEQLKSGTASVVCLLNNFYPREAKVQWKVDNALQSGNSQESVTEQDSKDSTYSLSSTLTLSKADYEKHKVYACEVTHQGLSSPVTKSFNRGECHHHHHH
heavy: B1 heavy
notes: as for B1
B6: CD33 BRIDGE variant B11 (Fab)
light: GHNYTTRNILPGLNITSTFHKTSGSGKGSEPKSSDKTHTGSDIQMTQSPSSLSASVGDRVTITCRASESVDNYGISFMNWFQQKPGKAPKLLIYAASNQGSGVPSRFSGSGSGTDFTLTISSLQPDDFATYYCQQSKEVPWTFGQGTKVEIKRTVAAPSVFIFPPSDEQLKSGTASVVCLLNNFYPREAKVQWKVDNALQSGNSQESVTEQDSKDSTYSLSSTLTLSKADYEKHKVYACEVTHQGLSSPVTKSFNRGECHHHHHH
heavy: B1 heavy
notes: as for B1
B7: CD33 BRIDGE variant B1 (Fab, V domains shown)
VH: QVQLVQSGAEVKKPGSSVKVSCKASGYTFTDYNMHWVRQAPGQGLEWIGYIYPYNGGTGYNQKFKSKATITADESTNTAYMELSSLRSEDTAVYYCARGRPAMDYWGQGTLVTVSS
VL: DIQMTQSPSSLSASVGDRVTITCRASESVDNYGISFMNWFQQKPGKAPKLLIYAASNQGSGVPSRFSGSGSGTDFTLTISSLQPDDFATYYCQQSKEVPWTFGQGTKVEIKR
notes: as for B1
B8: CD33 BRIDGE variant B2 (Fab, V domains shown)
VH: B7 VH
VL: B7 VL
notes: as for B1
B9: CD33 BRIDGE variant B13 (Fab, V domains shown)
VH: B7 VH
VL: B7 VL
notes: as for B1
B10: CD33 BRIDGE variant B9 (Fab, V domains shown)
VH: B7 VH
VL: B7 VL
notes: as for B1
B11: CD33 BRIDGE variant B3 (Fab, V domains shown)
VH: B7 VH
VL: B7 VL
notes: as for B1
B12: CD33 BRIDGE variant B8 (Fab, V domains shown)
VH: B7 VH
VL: B7 VL
notes: as for B1
B13: CD33 BRIDGE variant B14 (Fab, V domains shown)
VH: B7 VH
VL: B7 VL
notes: as for B1
B14: CD33 BRIDGE variant B7 (Fab, V domains shown)
VH: B7 VH
VL: B7 VL
notes: as for B1

Legend:
nfP2X7 CAR 1 [1] = target: T1, nfP2X7 CAR 1; test: flow cytometry, CAR T cells, anti-His-FITC, EGFR+ over EGFR- cells
T1 construct: Expressed on T cells with truncated EGFR as marker gene; also called anti-nfP2X7 receptor CAR 1; nfP2X7 targeted CAR on EGFR+ T cells
Protocol: (§1) nfP2X₇ CAR T cells were incubated with different BRiDGE variants at saturating concentrations. […] The MFI intensity correlates with the number of secondary bound antibodies bound to the BRiDGEs that are only detected if they are bound to the CAR T cells. EGFR was used as a marker gene to detect the CAR expression. Thus, the EGFR+ T cell population was defined as the CAR expressing cells and the EGFR− T cell population was defined as the CAR negative subset. MFI: median fluorescence intensity. EGFR: epidermal growth factor receptor. BLItz: Bio-Layer interferometry (BLI) technology using HIS-tag identification tips. HIS-tag MFI Ratio: relative index that is calculated by the testing condition MFI divided by the control MFI, which corresponds to the MFI measured on EGFR+ T cells (defined as CAR positive cells) divided by the MFI measured on the EGFR− T cells (defined as CAR negative cells). […] The higher the MFIR, the stronger the binding.

CD33 [2] = target: T2, CD33 (UniProt P20138 18-364, limits assumed); test: flow cytometry, MOLM-13 cells, anti-His-FITC detection
T2 construct: whole, on cells; also called Siglec-3; CD33 on MOLM-13 cells
Protocol: (§2) MOLM-13 cells were incubated with different CD33 BRIDGE variants at saturating concentrations. […] The MFI intensity correlates with the number of secondary antibodies bound to the CD33 BRIDGE variants that are only detected if they are bound to the MOLM-13 cells. MFI: median fluorescence intensity. BLItz: Bio-Layer interferometry (BLI) technology using HIS-tag identification tips. […] The higher the MFIR, the stronger the binding.

nfP2X7 CAR 1 [3] = target: T1, nfP2X7 CAR 1; test: flow cytometry, nfP2X7 CAR T cells (EGFR+), anti-His-FITC detection
Protocol: as §1

CD33 [4] = target: T2, CD33; test: flow cytometry, MOLM-13 cells, anti-His-FITC detection, ratio to no bridge
Protocol: as §2

nfP2X7 CAR 1 [5] = target: T1, nfP2X7 CAR 1; test: flow cytometry, CAR T cells, anti-His-FITC, EGFR+ MFI over background 0.4
Protocol: as §1

T2 sequence (P20138 18-364 limits assumed): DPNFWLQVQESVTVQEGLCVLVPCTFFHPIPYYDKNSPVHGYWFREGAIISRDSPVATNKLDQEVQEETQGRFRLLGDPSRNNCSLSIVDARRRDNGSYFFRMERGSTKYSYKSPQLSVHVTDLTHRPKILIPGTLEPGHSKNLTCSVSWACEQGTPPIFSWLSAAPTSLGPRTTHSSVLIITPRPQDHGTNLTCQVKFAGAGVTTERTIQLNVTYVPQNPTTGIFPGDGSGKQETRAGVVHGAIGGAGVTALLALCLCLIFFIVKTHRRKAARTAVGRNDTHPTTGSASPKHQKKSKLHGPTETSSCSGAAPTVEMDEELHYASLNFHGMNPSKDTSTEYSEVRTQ

Row | Binder | HisTag MFI Ratio of EGFR+/EGFR- (nfP2X7 CAR 1 [1]) | MFI HisTag FITC (CD33 [2]) | MFI HisTag FITC in EGFR+ Population (nfP2X7 CAR 1 [3]) | MFIR HisTag FITC (CD33 [4]) | HisTag MFI Ratio (background 0.4) (nfP2X7 CAR 1 [5])
1 | B1 | 3.1 | 5.53 | 1.68 | 8.25 | 4.2
2 | B2 | 3.1 | 6.08 | 1.55 | 9.07 | 3.9
3 | B3 | 3.4 | 6.25 | 1.96 | 9.33 | 4.9
4 | B4 | 2.8 | 5.86 | 1.4 | 8.75 | 3.5
5 | B5 | 3.5 | 6.86 | 1.99 | 10.2 | 5
6 | B6 | 2.7 | 7.39 | 1.2 | 11 | 3
7 | B7 | 2.5 | 6.11 | 1.08 | 9.12 | 2.7
8 | B8 | 2.5 | 5.59 | 1.11 | 8.34 | 2.8
9 | B9 | 2.9 | 6.78 | 1.35 | 10.1 | 3.4
10 | B10 | 2.8 | 6.33 | 1.16 | 9.45 | 2.9
11 | B11 | 2.4 | 6.76 | 1.04 | 10.1 | 2.6
12 | B12 | 2.9 | 6.53 | 1.34 | 9.75 | 3.4
13 | B13 | 2.9 | 6.68 | 1.44 | 9.97 | 3.6
14 | B14 | 3 | 5.52 | 1.45 | 8.24 | 3.6
